Data published in patent US20230028110A1 (ADAPTATE BIOTHERAPEUTICS, published 2023).

How the values were obtained:
[1] = target: T1, Vδ1 chain of the γδ TCR on human Vδ1 γδ T cells (human); test: flow cytometry on Vδ1 γδ T-cells, anti-human IgG secondary antibody, % cells bound IgG
T1 construct: whole, on cells; also called cell surface Vδ1 TCR; Vδ1-positive γδ T cells

[2] = target: T2, 4-1BB on activated CD8 T-cells (human, UniProt Q07011); test: flow cytometry on anti-CD3/anti-CD28-activated CD8 T-cells, anti-human IgG secondary antibody, % cells bound IgG
T2 construct: also called 4-1BB+ CD8 T-cells

[3] = target: Recombinant human FAPα (human, UniProt Q12884 26-760); test: SPR, Reichert 4SPR; antibody captured on Protein A chip, human FAPα flown over
Experimental: Recombinant human Vδ1 heterodimer or human FAPα was flown over the cell at a concentration of 100 nM with the following parameters: 180 s association, 480 s dissociation, flowrate 25 μL/min, running buffer PBS+0.05% Tween 20. All experiments were performed at room temperature.

[4] = target: T1, Vδ1 chain of the γδ TCR on human Vδ1 γδ …; test: flow cytometry on Vδ1 γδ T-cells, anti-human IgG secondary antibody, % cells bound IgG; remark: listed apart in the source
Experimental: (§1) After washing, cells were incubated for a further 15 minutes with anti-human IgG secondary antibodies before washing and fixing. The amount of antibody bound to each cell type was determined by flow cytometry.

[5] = target: T3, L1 (DV1-GV4), soluble human Vδ1/Vγ4 γδ TCR heterodimer in leucine zipper format (human); test: SPR (Reichert 4SPR), antibody on Protein A chip, antigen flown over
T3 construct: Biotinylated in the DELFIA ranking; also called Antigen L1 (TRDV1/TRGV4); human DV1-GV4; not shown: gamma chain: Vγ4 (TRGV4) domain on a TCR constant region, leucine zipper, histidine tag

[6] = target: T4, Recombinant human 4-1BB (human, UniProt Q07011 24-186); test: SPR, Reichert 4SPR; antibody captured on Protein A chip, human 4-1BB flown over
T4 construct: also called CD137
Experimental: (§2) Recombinant human Vδ1 heterodimer or human 4-1BB was flown over the cell at a top concentration of 100 nM.

[7] = target: T5, Recombinant human PD-1 (human, UniProt Q15116 25-167, limits assumed); test: SPR, Reichert 4SPR; antibody captured on Protein A chip, human PD-1 flown over
T5 construct: also called programmed cell death protein 1
Experimental: (§3) Recombinant human Vδ1 heterodimer or human PD-1 was flown over the cell at a top concentration of 100 nM.

[8] = target: T6, TIGIT on activated CD8 T-cells (human, UniProt Q495A1); test: flow cytometry, anti-human IgG secondary antibody, activated CD8 T-cells
T6 sequence (receptor chain, looked up): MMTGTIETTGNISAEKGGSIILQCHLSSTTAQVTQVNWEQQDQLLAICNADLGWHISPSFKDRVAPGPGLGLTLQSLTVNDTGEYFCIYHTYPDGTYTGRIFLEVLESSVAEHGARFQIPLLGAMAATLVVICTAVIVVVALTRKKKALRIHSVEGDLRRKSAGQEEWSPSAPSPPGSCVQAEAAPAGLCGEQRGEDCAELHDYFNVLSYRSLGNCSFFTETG
Experimental: (§4) Initially CD4 and CD8 T-cells were negatively selected by magnetic sorting from PBMC buffy coats extracted from whole blood. […] After washing, cells were incubated for a further 15 minutes with anti-human IgG secondary antibodies before washing and fixing. The amount of antibody bound to each cell type was determined by flow cytometry.

[9] = target: T1, Vδ1 chain of the γδ TCR on human Vδ1 γδ …; test: flow cytometry on Vδ1 γδ T-cells, anti-human IgG secondary antibody
Experimental: as §1

[10] = target: T3, L1 (DV1-GV4), soluble human Vδ1/Vγ4 γδ …; test: SPR (Reichert 4SPR), antibody on Protein A chip, Vδ1 heterodimer at 6.25-100 nM as analyte
[11] = target: T7, Cyno DV1/GV77 antigen, recombinant cynomolgus Vδ1 heterodimer (cynomolgus monkey); test: as above
T7 construct: also called cyno TRDV1; Cyno DV1-77; not shown: delta CDR3/J, TCR constant region, zipper and tag; the whole gamma chain GV77

[12] = target: T8, Recombinant human OX40 (human, UniProt P43489 29-216, limits assumed); test: SPR, Reichert 4SPR; antibody captured on Protein A chip, human OX40 flown over
T8 construct: also called CD134
T8 sequence (looked up): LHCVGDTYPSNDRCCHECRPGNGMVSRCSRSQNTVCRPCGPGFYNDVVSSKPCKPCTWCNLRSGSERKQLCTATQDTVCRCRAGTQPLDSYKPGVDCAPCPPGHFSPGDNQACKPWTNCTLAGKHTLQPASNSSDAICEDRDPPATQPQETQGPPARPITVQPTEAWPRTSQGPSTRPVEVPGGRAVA
Experimental: Recombinant human Vδ1 heterodimer or human OX40 was flown over the cell at a top concentration of 100 nM.

[13] = target: T3, L1 (DV1-GV4), soluble human Vδ1/Vγ4 γδ …; test: SPR (Reichert 4SPR), antibody on Protein A chip, antigen flown over; remark: listed apart in the source
Experimental: as §2

[14] = target: T9, Her2 on Her2+ breast cancer cells (SK-BR-3, BT-474) (human, UniProt P04626 23-1255); test: flow cytometry on SK-BR-3 cells, anti-human IgG secondary antibody
T9 construct: whole, on cells; also called ErbB-2; CD340

[15] = target: T10, Recombinant human TIGIT (human, UniProt Q495A1 22-141); test: SPR, Reichert 4SPR; antibody captured on Protein A chip, human TIGIT flown over
T10 construct: also called T cell immunoreceptor with Ig and ITIM domains
T10 sequence (looked up): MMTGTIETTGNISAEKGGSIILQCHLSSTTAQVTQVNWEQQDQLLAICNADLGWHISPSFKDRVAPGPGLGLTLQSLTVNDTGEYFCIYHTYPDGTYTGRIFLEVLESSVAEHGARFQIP
Experimental: Recombinant human Vδ1 heterodimer or human TIGIT was flown over the cell at a top concentration of 100 nM.

[16] = target: T1, Vδ1 chain of the γδ TCR on human Vδ1 γδ …; test: flow cytometry, Vδ1 γδ T cells of donor ATS006, mAb titrated up to about 500 nM at 4 C, anti-human IgG detection
Experimental: All incubation steps were performed at 4° C. and mAb binding was determined using flow cytometry to measure the median level of fluorescence. Logarithmic four parameter dose-response curves were fitted using GraphPad Prism 9. […] For Vδ1-positive γδ T cell, data is represented as the mean two donors.
A range of target cells were assayed to determine the specificity and affinity of Vδ1 mAb binding. This included expanded skin-derived Vδ1 γδ T-cells, HEK293T cells, Raji cells, and multiple leukocyte subsets within human primary blood mononuclear cells. Adherent or semi-adherent cells (skin-derived Vδ1 γδ T-cells, HEK293T) were detached from tissue culture flask and resuspended in PBS. Similarly, non-adherent cell types (Raji, PBMC), were harvested and resuspended in PBS. Cells were seeded at a final density of 100,000 cells per well in v-bottom 96-well plates. Cells underwent centrifugation and the cell pellets were resuspended in FcR blocking reagent according to the manufacturer's instructions, and incubated for 20 minutes at 4C prior to a further wash. […] To determine the quantity of mAb bound to the cell surface, the cells were then stained with a murine anti-human IgG secondary antibody, conjugated to APC (dilution: 1:100). For Vδ1 γδ T-cells, HEK293T and Raji, the cells were also stained solely with a viability dye.

[17] = target: T11, FAPα on FAPα+ fibroblasts (human, UniProt Q12884 1-760); test: flow cytometry on BJ fibroblasts, anti-human Fc secondary antibody, % IgG bound cells
T11 construct: whole, on cells; also called FAPα+ target cells (BJ fibroblasts, human dermal fibroblasts)
Experimental: After washing, cells were incubated for a further 15 minutes with anti-human Fc secondary antibodies before washing and fixing. The amount of antibody bound to each cell type was determined by flow cytometry.

[18] = target: T1, Vδ1 chain of the γδ TCR on human Vδ1 γδ …; test: flow cytometry, anti-human IgG secondary antibody, Vδ1 γδ T-cells
Experimental: as §4

[19] = target: T1, Vδ1 chain of the γδ TCR on human Vδ1 γδ …; test: cell-based or functional assay
[20] = target: T3, L1 (DV1-GV4), soluble human Vδ1/Vγ4 γδ …; test: SPR (Reichert 4SPR), antibody on Protein A chip, antigen flown over; remark: listed apart in the source
Experimental: as §3

T3 sequence (main, as listed by the source): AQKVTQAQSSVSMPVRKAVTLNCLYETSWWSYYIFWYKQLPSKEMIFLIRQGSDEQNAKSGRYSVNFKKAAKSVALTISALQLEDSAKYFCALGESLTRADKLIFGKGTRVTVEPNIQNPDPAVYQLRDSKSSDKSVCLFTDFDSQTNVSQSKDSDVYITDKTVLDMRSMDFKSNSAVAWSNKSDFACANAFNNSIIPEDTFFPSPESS
T1 sequence (A0A1B0GX56 22-115, stated change not applied): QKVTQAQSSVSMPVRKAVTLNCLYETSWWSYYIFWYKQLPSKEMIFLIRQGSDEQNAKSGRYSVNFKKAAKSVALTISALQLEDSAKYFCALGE
T7 sequence (delta, as listed by the source limits assumed): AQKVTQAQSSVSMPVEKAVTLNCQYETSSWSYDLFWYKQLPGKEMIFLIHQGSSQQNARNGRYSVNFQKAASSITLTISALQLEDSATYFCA
T2 sequence (Q07011 24-255 limits assumed): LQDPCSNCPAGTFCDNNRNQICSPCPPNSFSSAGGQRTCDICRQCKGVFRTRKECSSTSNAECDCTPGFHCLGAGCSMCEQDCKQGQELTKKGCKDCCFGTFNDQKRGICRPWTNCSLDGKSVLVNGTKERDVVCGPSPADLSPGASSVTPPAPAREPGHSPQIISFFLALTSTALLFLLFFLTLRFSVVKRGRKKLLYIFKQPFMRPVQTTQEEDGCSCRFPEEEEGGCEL
T4 sequence (Q07011 24-186 limits assumed): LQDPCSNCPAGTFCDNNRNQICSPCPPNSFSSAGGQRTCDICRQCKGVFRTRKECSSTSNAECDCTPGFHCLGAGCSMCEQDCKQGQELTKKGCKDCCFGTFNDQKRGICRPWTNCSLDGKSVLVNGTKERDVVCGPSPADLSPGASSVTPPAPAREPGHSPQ
T5 sequence (Q15116 25-167 limits assumed): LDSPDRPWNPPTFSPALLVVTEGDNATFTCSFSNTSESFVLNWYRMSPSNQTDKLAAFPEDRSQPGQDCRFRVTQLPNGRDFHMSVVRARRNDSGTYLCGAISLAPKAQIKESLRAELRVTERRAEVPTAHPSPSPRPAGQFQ

EC50 (read off the curve) [1]: ~200 pM | binding result [2]: no binding (tested: 200 nM) | binding result [3]: no binding | EC50 (read off the curve) [4]: ~200 pM | Kd [5]: 140 pM | binding result [6]: no binding | binding result [7]: no binding | binding result [8]: no binding (tested: 200 nM) | EC50 (read off the curve) [9]: ~5000 pM | Kd [10]: 340 pM | Kd [11]: 2600 pM | binding result [12]: no binding | Kd [13]: 1250 pM | binding result [14]: no binding (tested: about 300 nM) | binding result [15]: no binding | EC50 (read off the curve) [16]: ~2000 pM | binding result [17]: no binding (tested: about 70 nM) | EC50 (read off the curve) [18]: ~200 pM | IC50 (read off the curve), Vδ1 TCR downregulation, γδ T-cells with FAPα+ fibroblasts [19]: ~2000 pM | Kd [20]: 290 pM
B1: ADT1-4-2 (antibody, IgG1, V domains shown)
VH: EVQLQQSGPGLVKPSQTLSLTCAISGDSVSSKSAAWNWIRQSPSRGLEWLGRTYYRSKWSTDYAASVKSRITINPDTSKNQLSLQLNSVTPEDTAVYYCARTWVGYVDRWGQGTLVTVSS
VL: DIQMTQSPPALSASVGDRVTITCRASQDINDWLAWYQHKPGKAPKLLIYDASSLESGVPLRFSGSGSGTEFTLTISSLQPDDFATYYCQQKYSAPQVTFGQGTRLEIK
notes: IgG1
